Reference: PMC6181439
pKd: −log10 of the molar value.

Biological target: Recombinant mouse PrP lacking FT (90-230) (mouse) (UniProt P04925)
Experiment: SPR
Details: bispecific antibody

Q: With “scPOM-bi, POM1-POM2 bispecific single chain antibody” as the substance, how does the pKd read?
A: 8.44

Q: And the koff?
A: 0.00031 s⁻¹
